Data on 1 molecule can be found in patent US8889621B2, “Inhibiting binding of FGF23 to the binary FGFR-Klotho complex for the treatment of hypophosphatemia” (New York University, priority 2009, dated 2014).

The target of one experiment is T1, βKlotho-FGF19 (Mus musculus, UniProt Q99N32).
T1 construct: the ectodomain of murine βKlotho (F53 to L995) was expressed in HEK293 cells; FLAG (C); made in house; host or cells: HEK293 (βKlotho ectodomain); E. coli (FGF19)
T1 sequence (Q99N32 53-995): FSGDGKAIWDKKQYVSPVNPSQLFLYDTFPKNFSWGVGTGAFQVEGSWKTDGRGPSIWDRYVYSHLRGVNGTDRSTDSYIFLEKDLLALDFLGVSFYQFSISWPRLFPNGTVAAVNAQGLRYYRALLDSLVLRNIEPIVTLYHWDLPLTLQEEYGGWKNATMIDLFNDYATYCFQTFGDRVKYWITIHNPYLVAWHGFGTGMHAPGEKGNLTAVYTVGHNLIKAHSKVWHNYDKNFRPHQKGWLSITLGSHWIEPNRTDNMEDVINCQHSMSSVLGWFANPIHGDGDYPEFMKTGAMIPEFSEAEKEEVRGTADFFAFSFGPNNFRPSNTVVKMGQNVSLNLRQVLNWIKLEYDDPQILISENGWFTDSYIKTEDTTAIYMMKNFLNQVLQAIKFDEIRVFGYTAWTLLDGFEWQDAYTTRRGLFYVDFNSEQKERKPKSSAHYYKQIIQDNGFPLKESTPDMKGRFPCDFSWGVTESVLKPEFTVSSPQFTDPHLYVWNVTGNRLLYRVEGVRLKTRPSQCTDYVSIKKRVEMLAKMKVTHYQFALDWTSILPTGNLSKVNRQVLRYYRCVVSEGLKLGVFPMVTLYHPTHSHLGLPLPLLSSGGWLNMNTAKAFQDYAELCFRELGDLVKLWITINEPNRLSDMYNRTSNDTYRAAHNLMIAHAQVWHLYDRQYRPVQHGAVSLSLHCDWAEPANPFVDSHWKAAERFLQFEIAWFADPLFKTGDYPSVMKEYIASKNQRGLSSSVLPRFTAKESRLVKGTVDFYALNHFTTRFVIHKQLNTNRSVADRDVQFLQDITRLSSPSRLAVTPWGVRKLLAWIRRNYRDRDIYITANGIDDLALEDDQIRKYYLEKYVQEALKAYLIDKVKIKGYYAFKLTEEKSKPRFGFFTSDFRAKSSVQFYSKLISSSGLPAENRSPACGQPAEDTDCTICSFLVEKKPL
The experiment can be described thus: SPR specificity: βKlotho binding to immobilized FGF19^23-216. More on the design: species or system murine βKlotho, human FGF19. Particulars: molar ratio of 2:1 to βKlotho.

For experiment [1], the system named is binary FGFR-Klotho complex. Briefly: Pull-down / co-precipitation of FGF23 proteins with FGFR-Klotho complex. The format is binding. Particulars: HEK293-Klotho cell lysate. As for the experimental part: A pull-down assay may also be used to confirm the existence of a protein:protein interaction (i.e. FGF23^180-251 binding to the binary FGFR-Klotho complex). One aspect of the present invention utilizes pull-down assays. These assays involved subconfluent cultures of a HEK293 cell line ectopically expressing the FLAG-tagged membrane-spanning form of murine Klotho, which were harvested and lysed. Cell lysate was incubated with FGF23^28-251, FGF23^28-200, FGF23^28-179, FGF23^180-251, or protein sample buffer, and binary complexes of Klotho and endogenous FGFR were isolated from cell lysate using anti-FLAG M2 agarose beads. […]
Chain of binary FGFR-Klotho complex (O35082 35-1014, one chain of several): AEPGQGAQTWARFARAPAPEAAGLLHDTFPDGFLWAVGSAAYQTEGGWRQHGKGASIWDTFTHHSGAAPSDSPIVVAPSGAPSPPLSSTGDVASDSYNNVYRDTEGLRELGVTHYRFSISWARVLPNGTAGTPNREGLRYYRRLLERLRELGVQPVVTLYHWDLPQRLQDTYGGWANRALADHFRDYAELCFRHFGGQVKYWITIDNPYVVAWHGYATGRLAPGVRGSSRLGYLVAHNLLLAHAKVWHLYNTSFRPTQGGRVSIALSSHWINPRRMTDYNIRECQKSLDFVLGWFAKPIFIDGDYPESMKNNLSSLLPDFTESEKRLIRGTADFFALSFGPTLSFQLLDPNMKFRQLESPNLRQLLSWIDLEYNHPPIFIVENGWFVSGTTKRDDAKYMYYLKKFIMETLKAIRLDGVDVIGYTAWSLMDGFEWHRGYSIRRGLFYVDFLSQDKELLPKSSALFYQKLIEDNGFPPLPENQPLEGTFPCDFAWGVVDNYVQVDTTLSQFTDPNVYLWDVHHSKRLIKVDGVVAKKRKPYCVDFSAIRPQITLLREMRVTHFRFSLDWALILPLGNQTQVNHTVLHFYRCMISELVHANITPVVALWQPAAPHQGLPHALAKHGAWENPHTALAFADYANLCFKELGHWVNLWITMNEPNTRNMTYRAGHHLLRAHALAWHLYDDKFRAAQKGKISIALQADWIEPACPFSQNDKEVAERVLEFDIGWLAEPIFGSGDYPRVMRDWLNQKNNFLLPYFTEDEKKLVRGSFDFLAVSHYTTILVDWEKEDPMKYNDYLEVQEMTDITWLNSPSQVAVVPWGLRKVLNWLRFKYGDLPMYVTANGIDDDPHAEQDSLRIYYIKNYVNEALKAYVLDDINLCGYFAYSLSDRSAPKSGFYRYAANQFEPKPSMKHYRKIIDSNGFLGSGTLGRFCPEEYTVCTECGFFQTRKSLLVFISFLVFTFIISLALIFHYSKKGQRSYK
In parallel, subconfluent HEK293-Klotho cells (Kurosu et al., “Regulation of Fibroblast Growth Factor-23 Signaling by Klotho,” J Biol Chem 281(10):6120-6123 (2006), which is hereby incorporated by reference in its entirety) were transfected with expression vectors for V5-tagged FGFR1c, FGFR3c, or FGFR4 (Kurosu et al., “Regulation of Fibroblast Growth Factor-23 Signaling by Klotho,” J Biol Chem 281(10):6120-6123 (2006), which is hereby incorporated by reference in its entirety) and binding of FGF23 proteins/peptides to Klotho-FGFR complexes isolated from cell lysate was analyzed. […]

“Also recorded” adds a separate entry of the source.

B1: FGF23^180-251: 72-amino acid C-terminal tail of human FGF23 (S180 to I251), expressed in E. coli (protein, listed as Homo sapiens)
chain: SAEDDSERDPLNVLKPRARMTPAPASCSQELPSAEDNSPMASDPLGVVRGGRVNTHAGGTGPEGCRPFAKFI
On to B1, for which the “inhibition of βKlotho binding to immobilized FGF19” value with βKlotho-FGF19 is “failed to inhibit; also recorded: no inhibition”. In addition, the “co-precipitation with the binary FGFR-Klotho complex” value in experiment [1] was “co-precipitated with each of the three binary FGFR-Klotho complexes”.
